The source of these data is patent US20210347873A1 (SHANGHAI PHARMAEXPLORER, published 2021).

The target in test [1] is T1, human APRIL protein (human, UniProt O75888 105-250, limits assumed).
T1 construct: Bought protein; also called recombinant APRIL protein
T1 sequence (looked up): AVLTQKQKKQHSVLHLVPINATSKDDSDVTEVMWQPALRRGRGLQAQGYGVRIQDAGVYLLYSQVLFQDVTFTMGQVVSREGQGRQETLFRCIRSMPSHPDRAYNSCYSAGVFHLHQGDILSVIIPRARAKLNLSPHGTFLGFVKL
Put plainly: ELISA, coated APRIL; antibody 66.7 nM. In short, it runs like this:
(§1)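 OD450 values reflect BLyS antibody binding to immobilised human APRIL (1.0 μg/mL coat), detected via HRP-conjugated secondary and TMB with acid stop.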
In general terms: ELISA stands for enzyme-linked immunosorbent assay.

Test [2] addresses mouse BLyS protein (mouse, UniProt Q9WU72 69-309). Nature of the test: cell-based or functional assay.
Test [3] concerns the target T1, human APRIL protein. Nature of the test: ELISA, coated APRIL; antibody 13.3 nM. In short, it runs like this: as §1
The target in test [4] is T1, human APRIL protein. Nature of the test: ELISA, coated APRIL; antibody 2.67 nM. The procedure, abridged: as §1
Test [5] deals with T1, human APRIL protein. Put plainly: ELISA, coated APRIL; antibody 0.107 nM. The procedure, abridged: as §1
Test [6] addresses T1, human APRIL protein. Put plainly: ELISA, coated APRIL; antibody 0 nM (blank). In short, it runs like this: as §1
For test [7], the target named is T2, human BLyS (full length, arginine to histidine at position 132) on CHO-K1 cells (human, UniProt Q9Y275 1-285).
T2 construct: also called hBLyS; CHO-K1 hBLyS
T2 sequence (Q9Y275 whole entry R130H): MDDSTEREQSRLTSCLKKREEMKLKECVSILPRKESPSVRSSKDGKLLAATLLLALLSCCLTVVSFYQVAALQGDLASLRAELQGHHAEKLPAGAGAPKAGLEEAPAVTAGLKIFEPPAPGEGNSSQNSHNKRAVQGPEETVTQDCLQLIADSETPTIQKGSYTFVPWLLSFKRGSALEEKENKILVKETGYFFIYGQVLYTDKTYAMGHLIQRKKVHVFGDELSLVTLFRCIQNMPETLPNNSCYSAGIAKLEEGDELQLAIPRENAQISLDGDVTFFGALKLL
Nature of the test: flow cytometry, CHO-K1 hBLyS cells, antibody 0.107 nM. On the technique in general: Flow cytometry measures light scatter and fluorescence of single cells or particles in a stream.

Test [8] addresses T3, cynomolgus BLyS (full length, arginine to histidine at position 132) on CHO-K1 cells (cynomolgus, UniProt Q9Y275 1-285 (human entry)).
T3 construct: also called cyno BLyS; CHO-K1 cynoBLyS
T3 chain: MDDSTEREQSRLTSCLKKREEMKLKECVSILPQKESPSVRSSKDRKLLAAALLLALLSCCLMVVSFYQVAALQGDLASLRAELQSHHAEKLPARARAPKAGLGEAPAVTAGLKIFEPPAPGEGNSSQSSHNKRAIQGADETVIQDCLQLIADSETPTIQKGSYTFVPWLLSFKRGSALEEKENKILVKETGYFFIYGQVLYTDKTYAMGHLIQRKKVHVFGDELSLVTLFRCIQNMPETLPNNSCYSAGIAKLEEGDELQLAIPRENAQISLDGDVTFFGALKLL
Put plainly: flow cytometry, CHO-K1 cynoBLyS cells, antibody 0.00427 nM.

Test [9] addresses T3, cynomolgus BLyS (full length, arginine …). Nature of the test: flow cytometry, CHO-K1 cynoBLyS cells, antibody 2.67 nM.
Test [10] has as its target T2, human BLyS (full length, arginine to …). Nature of the test: flow cytometry, CHO-K1 hBLyS cells, antibody 66.7 nM.
Test [11] has the same target. Put plainly: flow cytometry, CHO-K1 hBLyS cells, antibody 0.0213 nM.
Test [12] shares this target. Nature of the test: flow cytometry, CHO-K1 hBLyS cells, antibody 0.00427 nM.
The target is the same in test [13]. Put plainly: flow cytometry, CHO-K1 hBLyS cells, antibody 13.3 nM.

Sequence of mouse BLyS protein (Q9WU72 69-309): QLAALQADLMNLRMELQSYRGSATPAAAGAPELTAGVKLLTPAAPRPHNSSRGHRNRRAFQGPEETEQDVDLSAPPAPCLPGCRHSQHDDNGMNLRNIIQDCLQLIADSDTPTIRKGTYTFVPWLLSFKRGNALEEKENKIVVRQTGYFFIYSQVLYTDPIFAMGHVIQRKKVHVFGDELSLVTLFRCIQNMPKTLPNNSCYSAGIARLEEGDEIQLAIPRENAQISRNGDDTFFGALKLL

mIgG Control (antibody): in test [1], the OD450 nm is 0.102. In test [2], this molecule registered a mouse B lymphocyte proliferation (OD450 nm), antibody 0 nM of 2190 OD450 nm; a mouse B lymphocyte proliferation (OD450 nm), antibody 0.000256 nM of 2110; a mouse B lymphocyte proliferation (OD450 nm), antibody 0.00128 nM of 2270 OD450 nm; a mouse B lymphocyte proliferation (OD450 nm), antibody 0.0064 nM of 2420 OD450 nm. For the same molecule, in test [2], the mouse B lymphocyte proliferation (OD450 nm), antibody 0.032 nM amounted to 2320 OD450 nm; the mouse B lymphocyte proliferation (OD450 nm), antibody 0.16 nM was found to be 2330 OD450 nm; the mouse B lymphocyte proliferation (OD450 nm), antibody 0.8 nM came out at 2520 OD450 nm; the mouse B lymphocyte proliferation (OD450 nm), antibody 4 nM turned out to be 2440 OD450 nm. Moreover, in [2], the mouse B lymphocyte proliferation (OD450 nm), antibody 20 nM was 2360 OD450 nm and the mouse B lymphocyte proliferation (OD450 nm), antibody 100 nM was 2350 OD450 nm. Further, the OD450 nm in test [3] worked out at 0.0624. In test [4], this molecule yielded an OD450 nm of 0.0558. The molecule further gave an OD450 nm in test [5] of 0.0533. In test [6], this molecule had an OD450 nm of 0.0716.
hIgG Control (antibody) returned an OD450 nm in test [1] of 0.477. In test [2], this molecule returned a mouse B lymphocyte proliferation (OD450 nm), antibody 0 nM of 2220 OD450 nm; a mouse B lymphocyte proliferation (OD450 nm), antibody 0.000256 nM of 2220; a mouse B lymphocyte proliferation (OD450 nm), antibody 0.00128 nM of 2240 OD450 nm; a mouse B lymphocyte proliferation (OD450 nm), antibody 0.0064 nM of 2460 OD450 nm. Moreover, in [2], the mouse B lymphocyte proliferation (OD450 nm), antibody 0.032 nM was found to be 2500 OD450 nm; the mouse B lymphocyte proliferation (OD450 nm), antibody 0.16 nM worked out at 2440 OD450 nm; the mouse B lymphocyte proliferation (OD450 nm), antibody 0.8 nM is 2510 OD450 nm; the mouse B lymphocyte proliferation (OD450 nm), antibody 4 nM was found to be 2580 OD450 nm. In test [2], the mouse B lymphocyte proliferation (OD450 nm), antibody 20 nM was determined as 2600 OD450 nm and the mouse B lymphocyte proliferation (OD450 nm), antibody 100 nM came out at 2670 OD450 nm. Further, in [3], the OD450 nm was determined as 0.226. The molecule further showed an OD450 nm in test [4] of 0.128. In addition, the OD450 nm in [5] was 0.0722. Besides, in test [6], the OD450 nm turned out to be 0.0711.

B1: 97A3C2H4 (antibody, V domains shown)
VH: EVKLVESGGGLVQPGGSLKLSCAASGFTFSTYTMSWVRQTPEKRLEWVAYISYGGGSTSYPDTVKGRFTISRDNAKNTLYLQMSSLKSEDTAIYYCTRHVTVVENSMDYWGQGTSVTVSS
VL: DILLTQSPDILSVSPGERVSFSCRASQSIGTSIHWYQQRTNGSPRLLIKYVSESFSGTPSRFSGSGSGTAFTLTINSVESEDIADYYCQQTHSWPWTFGGGTKLEIK
notes: Mouse hybridoma antibody purified on Protein G
For the molecule B1, the OD450 nm in test [1] was determined as 0.173; in test [3], 0.0848; in test [4] it was 0.0617; in [5], 0.0561; in test [6], 0.0566.

B2: L9G7 (antibody, human IgG1, V domains shown)
VH: QIQLVQSGAEVKKPGASVKVSCKASGYTFTSYGISWVRQAPGQGLEWMGWISAYNGNTNYAQKLQGRVTMTTDTSTSTAYMELRSLRSDDTAVYYCARTYYDILTGYYYYGMDVWGQGTTVTVSS
VL: EIVLTQSPGTLSLSPGERATLSCRTSQSVDTYLAWYQQKPGQAPRLLIYDASNRATGIPARFSGSGSGTDFTLTISSLEPEDFAVYYCQQRSNWPLTFGGGTKVEIK
As for B2, the OD450 nm in [1] is 0.276; in test [3] it was 0.107; in [4] it was 0.0751; in test [5], 0.0861; in test [6] it was 0.0638.

B3: 8E7D9C7F5 (antibody, V domains shown)
VH: QVQLQQSGVELARPGASVKLSCKASGYTFTSYGISWVKQRTGQALEWIGEIYPRSGNTYYNEKFKGKATLTADKSSSTAYMELRSLTSEDSAVYFCARSGPITTLVATDYGMDYWGQGTSVTVSS
VL: DIVLTQSPASLAVSLGQRATISCRASKSVSTSSYSYMHWYQQKPGQPPKLLIKFASNLESGVPARFSGSGSGTDFTLNIHPVEEEDAATYYCQHSREFPYTFGGGTKLEIK
notes: Mouse hybridoma monoclonal antibody purified on Protein G
Regarding B3, in [7], the MFI worked out at 282 MFI. Moreover, the MFI in [8] was 74.4 MFI. The same molecule showed an MFI in test [9] of 1130 MFI. Moreover, in test [2], the “mouse B lymphocyte proliferation (OD450 nm), antibody 0 nM” value came out at 2100 OD450 nm; the “mouse B lymphocyte proliferation (OD450 nm), antibody 0.000256 nM” value was determined as 2220 OD450 nm; the “mouse B lymphocyte proliferation (OD450 nm), antibody 0.00128 nM” value is 2240 OD450 nm; the “mouse B lymphocyte proliferation (OD450 nm), antibody 0.0064 nM” value came to 2250 OD450 nm. Further, in [2], the “mouse B lymphocyte proliferation (OD450 nm), antibody 0.032 nM” value was 2320 OD450 nm; the “mouse B lymphocyte proliferation (OD450 nm), antibody 0.16 nM” value was 2350 OD450 nm; the “mouse B lymphocyte proliferation (OD450 nm), antibody 0.8 nM” value was 2300 OD450 nm; the “mouse B lymphocyte proliferation (OD450 nm), antibody 4 nM” value came out at 2440 OD450 nm. For the same molecule, in test [2], the “mouse B lymphocyte proliferation (OD450 nm), antibody 20 nM” value stood at 2350 OD450 nm and the “mouse B lymphocyte proliferation (OD450 nm), antibody 100 nM” value stood at 2360 OD450 nm. The molecule further gave an MFI in [10] of 596 MFI. This molecule also came in with an MFI in [11] of 122 MFI. For the same molecule, the MFI in [12] worked out at 67.4 MFI. In test [13], the MFI is 570 MFI.

B4: 111D10D6G3 (antibody, V domains shown)
VH: QVQLQQPGAELVKPGASVKMSCKASGYTFTRHWITWVKQRPGQGLEWIGDIFPGSGSINYNEKFKSEATLTVEKSSSTAYMQLSSLTSEDSAVYYCARGDVDVWGTGTTVTVSS
VL: DIQMTQSPSSLSASLGERVSLTCRASQEIRGYLSWLQQKPNGTIKRLIYAASTLDSGVPKRFSATRSGSDFSLTISSLESEDFADYYCLQYASYPFTFGSGTKLEIK
notes: as for B3
Consider B4, for which the MFI in test [7] was found to be 150 MFI. In test [8], this molecule displayed an MFI of 38.8 MFI. The same molecule yielded an MFI in test [9] of 510 MFI. Further, in [2], the “mouse B lymphocyte proliferation (OD450 nm), antibody 0 nM” value was found to be 2120 OD450 nm; the “mouse B lymphocyte proliferation (OD450 nm), antibody 0.000256 nM” value was determined as 2300 OD450 nm; the “mouse B lymphocyte proliferation (OD450 nm), antibody 0.00128 nM” value came to 2150 OD450 nm; the “mouse B lymphocyte proliferation (OD450 nm), antibody 0.0064 nM” value stood at 2130 OD450 nm. Also, in test [2], the “mouse B lymphocyte proliferation (OD450 nm), antibody 0.032 nM” value was found to be 2320 OD450 nm; the “mouse B lymphocyte proliferation (OD450 nm), antibody 0.16 nM” value was 2290 OD450 nm; the “mouse B lymphocyte proliferation (OD450 nm), antibody 0.8 nM” value came out at 2520 OD450 nm; the “mouse B lymphocyte proliferation (OD450 nm), antibody 4 nM” value came out at 2710 OD450 nm. In test [2], the “mouse B lymphocyte proliferation (OD450 nm), antibody 20 nM” value turned out to be 2540 OD450 nm and the “mouse B lymphocyte proliferation (OD450 nm), antibody 100 nM” value was found to be 2360 OD450 nm. Further, the MFI in test [10] turned out to be 296 MFI. In [11], this molecule returned an MFI of 65.5 MFI. In test [12], the MFI was 41.2 MFI. Besides, the MFI in [13] was found to be 276 MFI.

B5: 111D10D6G3 (antibody, V domains shown)
VH: QVQLQQPGAELVKPGASVKMSCKASGYTFTRHWITWVKQRPGQGLEWIGDIFPGSGSINYNEKFKSEATLTVEKSSSTAYMQLSSLTSEDSAVYYCARGDVDVWGTGTTVTVSS
VL: DIQMTQSPSSLSASLGERVSLTCRASQEIRGYLSWLQQKPNGTIKRLIYAASTLDSGVPKRFSATRSGSDFSLTISSLESEDFADYYCLQYASYPFTFGSGTKLEIK
notes: as for B1
Regarding B5, the OD450 nm in test [1] came out at 0.0681; in test [3], 0.0573; in test [4] it was 0.0583; in test [5], 0.0536; in test [6] it was 0.0547.

B6: L1D12 (antibody, human IgG1, V domains shown)
VH: QVQLVQSGGGLVQPGGSLRLSCAASGFTVSSNYMSWVRQAPGKGLEWVSVIYSGGSTYYADSVKGRFTISRDNSKNTLYLQMNSLRAEDTAVYYCARGFHDILTGYGMDVWGQGTTVTVSS
VL: SSELTQDPAVSVALGQTVRITCQGDSLRNYYAGWYQQKPGQAPVLVIYGKNNRPSGIPDRFSGSSSGNTASLTITGTQAEDEADYYCSSRDNSGTHLVEFGGGTKLTVL
notes: also called LID12
With B6, the OD450 nm in [1] was determined as 0.133; in [3] it was 0.124; in [4], 0.102; in test [5] it was 0.0678; in [6], 0.0625.
